Residue numbers refer to the chain shown, from its start. Names and notes keep the numbering of the source. “Also recorded” adds a separate entry of the source.
B1: CYP2B6TM: human CYP2B6 triple mutant with substitutions I114V, L199M and V477W (SEQ ID No 1) (protein, listed as Homo sapiens)
chain: MELSVLLFLALLTGLLLLLVQRHPNTHDRLPPGPRPLPLLGNLLQMDRRGLLKSFLRFREKYGDVFTVHLGPRPVVMLCGVEAIREALVDKAEAFSGRGKIAMVDPFFRGYGVVFANGNRWKVLRRFSVTTMRDFGMGKRSVEERIQEEAQCLIEELRKSKGALMDPTFLFQSITANIICSIVFGKRFHYQDQEFLKMMNLFYQTFSLISSVFGQLFELFSGFLKYFPGAHRQVYKNLQEINAYIGHSVEKHRETLDPSAPKDLIDTYLLHMEKEKSNAHSEFSHQNLNLNTLSLFFAGTETTSTTLRYGFLLMLKYPHVAERVYREIEQVIGPHRPPELHDRAKMPYTEAVIYEIQRFSDLLPMGVPHIVTQHTSFRGYIIPKDTEVFLILSTALHDPHYFEKPDAFNPDHFLDANGALKKTEAFIPFSLGKRICLGEGIARAELFLFFTTILQNFSMASPVAPEDIDLTPQECGWGKIPPTYQIRFLPR
B2: I114V/V477W: previously published CYP2B6 double active site mutant (Nguyen et al 2008) (protein, UniProt P20813 1-491, looked up, variant I114V V477W)
Cytochrome P450 2B6: B1 chain with M199L
B3: CYP2B6wt: wild-type human cytochrome P450 2B6, without reductase (protein, UniProt P20813 1-491, looked up)
Cytochrome P450 2B6: B1 chain with V114I, M199L, W477V

Assays:
[1] = tested on: TC1-Luc2 mouse pulmonary tumour cells; assay: In vivo cytotoxicity assay, subcutaneous TC1 tumours in mice treated with CPA; conditions: CPA 140 mg/kg i.p., C57Bl6 mice, FIG. 14
Description: To test the capacity of the triple mutant to enhance the response to CPA in vivo, a mouse model was used. Mouse pulmonary tumour cells (TC1-Luc2) were infected with a lentivirus vector carrying the CYP2B6TM-RED construct and injected subcutaneously into C57Bl6 mice. As a control, uninfected TC1 cells-were injected. TC1-Luc2 cells express luciferase, permitting tumour size to be monitored via bioluminescence.
In initial experiments, 10 mice were injected with CYP2B6TM-RED-TC1 cells and 10 were injected with uninfected TC1 cells. Tumour growth was monitored, and when the tumour size reached approximately 400 mm^3 half of the mice were treated with CPA via intraperitoneal injection at 140 mg/kg. untreated mice were sacrificed when tumour volume reached around 1500 mm^3.

[2] = CPA 4-hydroxylase activity in yeast microsomes; type: biochemical; conditions: for Vmax of CPA-4' hydroxylation / Km / CPA hydroxylase activity Vmax: yeast microsomes; for Vmax of CPA-4' hydroxylation / Km: FIG. 9; for Km: read-out: Km of CPA-4' hydroxylation; for CPA hydroxylase activity Vmax: Table 1
Description: CYP2B6 wt or CYP2B6TM alone or in fusion with RED were expressed in the MR) yeast strain, in which yeast NADPH cytochrome P450 reductase was constitutively expressed. The pYeDP60 plasmids were introduced into intact yeast cells based on a refined lithium acetate-mediated protocol as described in Truan et al, 1993, above. Yeast culture conditions were as described in Bellamine A, Gautier J C, Urban P, Pompon D (1994): Chimeras of the human cytochrome P450 1A family produced in yeast. Accumulation in microsomal membranes, enzyme kinetics and stability. Eur J Biochem 225:1005-13. Yeast microsomes were prepared based on the mechanical disruption method using glass beads as described in Bellamine A, Gautier J C, Urban P, Pompon D. (1994): Chimeras of the human cytochrome P450 1A family produced in yeast. Accumulation in microsomal membranes, enzyme kinetics and stability. Eur J Biochem 225:1005-13. The fluorometric determination of yeast microsomal CPA 4-hydroxylase was adapted from a technique described previously (Roy P, Yu […]. (1999): […] Drug Metab Dispos 27:655-66) for a 96-well microplate with several modifications. Incubations were carried out for 1 h at 28° C. in a total volume of 200 μl and included 100 mM sodium phosphate buffer, pH 7.4, 1 mM EDTA, 10 pmol of CYP2B6 wt or CYP2B6TM or CYP2B6TM-RED with different linkers (microsomal P450 content was spectrally determined by the method of Schoene […], von Oldershausen H F. (1972): Determination of drug metabolizing enzymes in needle biopsies of human liver. Eur J Clin Pharmacol 4:65-73) and 10 mM CPA. Reactions were initiated by adding the NADPH-generating system and stopped by the addition of 200 μl of 10% trichloroacetic acid. After centrifugation at 13,000 g and 4° C. for 15 min to pellet the proteins, 300 μl of the supernatant was transferred to a clean test tube containing 160 μl of the fluorescence mixture (6 mg of 3-aminophenol and 6 mg of hydroxylamine hydrochloride freshly dissolved in 1 ml of 1N HCl). […] After cooling to room temperature, fluorescence reading were performed on a Bio-tek FL600 microplate fluorescence reader (excitation at 350 nm and emission at 515 nm). […] Data were analyzed using Prism software (Graph-Pad Software, Inc., San Diego, Calif.) to calculate kinetic parameters (Km, Vmax), with Vmax values expressed as moles of product formed per minute, normalized to the moles of P450 included in each reaction (turnover number expressed as minutes^-1). Data shown were based on duplicate determinations for each data point.

[3] = double mutant, earlier publication; cited from earlier work

Molecule | Vmax of CPA-4' hydroxylation [2] [min⁻¹] | Km [2] [mM] | CPA hydroxylase activity Vmax [2] | further results
O=P1(N(CCCl)CCCl)NCCCO1 (stereo not drawn) [CPA, cyclophosphamide] | – | – | – | change in tumour volume after CPA, uninfected TC1 tumours [1]: only a modest effect on the uninfected tumour cells and did not produce an overall reduction in tumour volume; also recorded: slowed this rapid increase in uninfected tumour cells but obtained no reduction in overall tumour size
B1 | 107.5 ± 3.4 | 0.51 ± 0.08 | 105.5 nmol 4OH-CPA/min/nmol CYP2B6 | affinity for CPA relative to wild-type enzyme ([2]; greater than wild-type): 8 times; Vmax compared with wild-type enzyme ([2]; in words): retaining the same Vmax; efficiency at metabolising CPA into cytotoxic metabolite relative to wild-type ([2]; more efficient than wild-type protein): 10 times; change in tumour volume after CPA, tumours expressing CYP2B6TM-RED [1]: dramatic reductions in tumour size
B2 | – | – | – | CPA-4-hydroxylation efficiency compared to wild-type enzyme [3]: four-fold increase
B3 | 107.3 ± 3.74 | 4.33 ± 0.5 | 62.5 nmol 4OH-CPA/min/nmol CYP2B6 | –

From patent publication US9243231B2, “Mutant cytochrome P450 2B6 proteins and uses thereof” (Institut National de la Santé et de la Recherche Médicale …, priority 2011, dated 2016)
